The source of these data is paper PMC12021450.

Assay [1] concerns the target Trypanosoma brucei MSC-associated protein 1 (MCP1), wild type, His6-tagged (Trypanosoma brucei). Kind of assay: mass photometry; protein alone, 50 nM final in 50 mM HEPES-KOH pH 7.6, 50 mM NaCl, 2 mM MgCl2, 0.5 mM TCEP; pre-incubated at 2 uM at room temperature for 10 min; no tRNA; monomer to dimer.
Assay [2] has the same target. Kind of assay: mass photometry; 50 nM protein with 25 nM tRNA^Ala (complex formed at 2 uM protein : 1 uM tRNA^Ala, room temperature, 10 min) in 50 mM HEPES-KOH pH 7.6, 50 mM NaCl, 2 mM MgCl2, 0.5 mM TCEP; monomer to dimer.

For orientation: stoichiometry N means a count of units in the complex or per binding partner.

Regarding “Trypanosoma brucei MSC-associated protein 1 (MCP1), wild type, His6-tagged (natural protein)”, in assay [1], the percent of the protein population that is dimeric amounted to 17% and the stoichiometry N was 2. In assay [2], this substance yielded a percent of the species in the dimer peak, with tRNA^Ala of 31% and a stoichiometry N of 2.
